Holding throughout (conditions): Sus scrofa
One data set concerns NC/C=C(\CF)C(=O)O. In words: (§1) Compound was tested for the inhibitory effect against Gamma-amino-N-butyrate transaminase from pig brain, activity expressed as Km.
The subject of data set [1] is NC/C=C(\CO)C(=O)O. The description is as §1.
For data set [2], the system named is NC/C=C(\CO)C(=O)O. In words: Compound was tested for the inhibitory effect against Gamma-amino-N-butyrate transaminase from pig brain, activity expressed as Vmax.

Chain of 4-aminobutyrate aminotransferase, mitochondrial (Sus scrofa), P80147 (P80147 whole entry): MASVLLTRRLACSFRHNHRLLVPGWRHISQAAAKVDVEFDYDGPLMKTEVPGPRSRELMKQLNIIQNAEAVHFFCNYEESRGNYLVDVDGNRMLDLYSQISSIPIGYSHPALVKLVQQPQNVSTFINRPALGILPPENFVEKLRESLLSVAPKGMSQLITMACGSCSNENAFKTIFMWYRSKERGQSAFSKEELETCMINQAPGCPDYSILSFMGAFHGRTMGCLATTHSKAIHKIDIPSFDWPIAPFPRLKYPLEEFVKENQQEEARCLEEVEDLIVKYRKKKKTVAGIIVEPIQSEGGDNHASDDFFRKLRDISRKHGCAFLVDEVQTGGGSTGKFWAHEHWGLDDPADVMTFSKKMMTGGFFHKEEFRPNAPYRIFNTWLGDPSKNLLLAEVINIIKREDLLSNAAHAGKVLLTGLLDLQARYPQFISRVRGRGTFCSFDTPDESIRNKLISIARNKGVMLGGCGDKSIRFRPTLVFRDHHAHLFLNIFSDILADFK

The term Km denotes the substrate concentration at which the rate is half of its maximum. A word on the Vmax: it is the rate approached at saturating substrate. Turning to “4-aminobutyrate aminotransferase, mitochondrial (Sus scrofa), P80147”, the Michaelis-Menten constant (Km) was determined as 140 µM in the data set with NC/C=C(\CF)C(=O)O and 10 µM in the data set with NC/C=C(\CO)C(=O)O [1]. Also, the Vmax with NC/C=C(\CO)C(=O)O [2] amounted to 0.012 µM/min/mg.

Values taken from ChEMBL document CHEMBL1123179, “4-Amino-2-(substituted methyl)-2-butenoic acids: substrates and potent inhibitors of gamma-aminobutyric acid aminotransferase” (J Med Chem, 1986).
